# Data: patent publication US20140072613A1, “Compositions and Methods for Treating Cutaneous Scarring” (priority 2012, published 2014)
# Columns and labels:
# DRAK1 (h) = biological target: T1, DRAK1 (h) (Homo sapiens, UniProt Q9UEE5); assay: Millipore radiometric kinase assay (IC50 Profiler Express); assay type: biochemical; conditions: DRAK1(h); 100 μM
# T1 sequence (Q9UEE5 1-414): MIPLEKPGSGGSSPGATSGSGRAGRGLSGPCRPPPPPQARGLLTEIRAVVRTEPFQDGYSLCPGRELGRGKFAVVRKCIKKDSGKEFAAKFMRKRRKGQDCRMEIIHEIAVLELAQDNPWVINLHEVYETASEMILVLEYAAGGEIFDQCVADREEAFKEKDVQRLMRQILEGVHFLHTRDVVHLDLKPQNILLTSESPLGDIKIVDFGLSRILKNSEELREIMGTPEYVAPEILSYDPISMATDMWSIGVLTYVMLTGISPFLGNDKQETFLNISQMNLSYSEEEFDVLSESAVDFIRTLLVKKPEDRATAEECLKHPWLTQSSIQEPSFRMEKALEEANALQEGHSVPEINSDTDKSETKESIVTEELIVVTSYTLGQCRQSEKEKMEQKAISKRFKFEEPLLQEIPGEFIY
# Text: (§1) Specifically, in these assays, a positively charged substrate is phosphorylated with a radiolabeled phosphate group from an ATP if the kinase is not inhibited by an inhibitor peptide. The positively charged substrate then is attracted to a negatively charged filter membrane, quantified with a scintillation counter, and compared to a 100% activity control.
# EGFR (L861Q) (h) = EGFR (L861Q) (h) (Homo sapiens, UniProt P00533, L861Q); assay: as above; assay type: biochemical; conditions: EGFR(L861Q)(h); 100 μM
# Text: as §1
# LOK (h) = LOK (h) (Homo sapiens, UniProt O94804); assay: as above; assay type: biochemical; conditions: LOK(h); 100 μM
# Sequence of LOK (h) (O94804 whole entry): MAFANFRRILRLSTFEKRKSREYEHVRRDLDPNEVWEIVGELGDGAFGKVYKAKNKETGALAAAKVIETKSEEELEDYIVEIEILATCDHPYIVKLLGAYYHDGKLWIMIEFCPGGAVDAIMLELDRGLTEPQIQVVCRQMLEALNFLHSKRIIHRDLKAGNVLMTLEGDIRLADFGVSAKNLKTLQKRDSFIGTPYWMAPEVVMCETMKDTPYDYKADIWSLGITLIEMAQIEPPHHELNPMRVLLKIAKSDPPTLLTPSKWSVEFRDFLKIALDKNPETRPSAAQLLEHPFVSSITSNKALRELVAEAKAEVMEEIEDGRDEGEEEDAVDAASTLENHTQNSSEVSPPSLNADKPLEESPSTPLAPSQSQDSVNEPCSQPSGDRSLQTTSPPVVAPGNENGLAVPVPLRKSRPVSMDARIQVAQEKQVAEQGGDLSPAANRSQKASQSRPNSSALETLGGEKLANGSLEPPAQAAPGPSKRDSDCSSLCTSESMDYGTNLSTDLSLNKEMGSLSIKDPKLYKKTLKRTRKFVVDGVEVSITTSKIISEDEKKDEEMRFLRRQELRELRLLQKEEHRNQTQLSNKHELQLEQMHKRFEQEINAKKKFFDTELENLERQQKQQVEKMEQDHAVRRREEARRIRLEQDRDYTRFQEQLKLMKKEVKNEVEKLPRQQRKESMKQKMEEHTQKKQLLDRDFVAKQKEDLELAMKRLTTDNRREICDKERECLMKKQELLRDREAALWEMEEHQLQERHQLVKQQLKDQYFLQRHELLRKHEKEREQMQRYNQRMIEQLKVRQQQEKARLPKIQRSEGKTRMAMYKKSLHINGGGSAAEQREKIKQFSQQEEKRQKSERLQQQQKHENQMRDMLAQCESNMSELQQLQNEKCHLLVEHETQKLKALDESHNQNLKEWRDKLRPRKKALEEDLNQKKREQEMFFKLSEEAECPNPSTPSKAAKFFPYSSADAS
# Text: as §1
# DMPK (h) = biological target: T2, DMPK (h) (Homo sapiens, UniProt Q09013); assay: as above; assay type: biochemical; conditions: DMPK(h); 100 μM
# T2 sequence (Q09013 1-629): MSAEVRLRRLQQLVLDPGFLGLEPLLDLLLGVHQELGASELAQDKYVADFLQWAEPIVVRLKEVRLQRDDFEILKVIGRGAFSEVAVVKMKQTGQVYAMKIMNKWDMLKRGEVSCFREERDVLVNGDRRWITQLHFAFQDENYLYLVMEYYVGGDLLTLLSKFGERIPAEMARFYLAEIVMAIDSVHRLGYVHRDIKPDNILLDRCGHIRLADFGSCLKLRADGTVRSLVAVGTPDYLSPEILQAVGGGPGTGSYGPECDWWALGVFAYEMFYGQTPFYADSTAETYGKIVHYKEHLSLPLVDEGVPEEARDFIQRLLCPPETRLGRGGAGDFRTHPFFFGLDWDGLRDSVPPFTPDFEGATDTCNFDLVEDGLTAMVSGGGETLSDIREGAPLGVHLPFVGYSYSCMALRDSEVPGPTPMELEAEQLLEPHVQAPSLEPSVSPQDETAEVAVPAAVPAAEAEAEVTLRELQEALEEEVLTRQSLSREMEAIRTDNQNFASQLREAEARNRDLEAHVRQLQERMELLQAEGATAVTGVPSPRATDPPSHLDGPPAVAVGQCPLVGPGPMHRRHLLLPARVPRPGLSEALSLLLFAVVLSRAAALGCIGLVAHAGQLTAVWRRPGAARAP
# Text: as §1
# CaMK1δ (h) = CaMK1δ (h) (Homo sapiens, UniProt Q8IU85); assay: biochemical; conditions: CaMKIδ(h); 100 μM
# Sequence of CaMK1δ (h) (Q8IU85 whole entry): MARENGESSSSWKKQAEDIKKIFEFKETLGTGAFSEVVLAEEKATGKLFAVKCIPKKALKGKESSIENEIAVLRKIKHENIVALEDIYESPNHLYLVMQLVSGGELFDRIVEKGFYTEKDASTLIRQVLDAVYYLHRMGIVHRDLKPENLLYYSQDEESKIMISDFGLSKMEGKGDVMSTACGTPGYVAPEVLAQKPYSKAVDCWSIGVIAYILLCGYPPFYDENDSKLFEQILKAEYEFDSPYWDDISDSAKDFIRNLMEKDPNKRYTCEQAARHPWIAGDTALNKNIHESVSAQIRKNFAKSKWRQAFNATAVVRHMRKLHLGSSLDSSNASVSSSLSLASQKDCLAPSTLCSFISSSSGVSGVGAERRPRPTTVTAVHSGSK
# Text: as §1
# Pim-1 (h) = Pim-1 (h) (Homo sapiens, UniProt P11309); assay: biochemical; conditions: Pim-1(h); 100 μM
# Sequence of Pim-1 (h) (P11309 whole entry): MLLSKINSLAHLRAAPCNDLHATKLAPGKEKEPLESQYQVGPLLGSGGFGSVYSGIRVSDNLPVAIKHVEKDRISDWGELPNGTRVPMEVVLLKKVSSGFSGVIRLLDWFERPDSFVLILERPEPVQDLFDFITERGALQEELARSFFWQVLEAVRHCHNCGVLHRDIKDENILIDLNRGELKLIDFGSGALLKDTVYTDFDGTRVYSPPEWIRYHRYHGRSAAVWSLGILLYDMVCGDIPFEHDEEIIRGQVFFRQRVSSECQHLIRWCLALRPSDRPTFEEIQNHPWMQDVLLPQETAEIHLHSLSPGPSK
# Text: as §1
# CaMKI (h) = CaMKI (h) (Homo sapiens, UniProt Q14012); assay: biochemical; conditions: CaMKI(h); 100 μM
# Sequence of CaMKI (h) (Q14012 whole entry): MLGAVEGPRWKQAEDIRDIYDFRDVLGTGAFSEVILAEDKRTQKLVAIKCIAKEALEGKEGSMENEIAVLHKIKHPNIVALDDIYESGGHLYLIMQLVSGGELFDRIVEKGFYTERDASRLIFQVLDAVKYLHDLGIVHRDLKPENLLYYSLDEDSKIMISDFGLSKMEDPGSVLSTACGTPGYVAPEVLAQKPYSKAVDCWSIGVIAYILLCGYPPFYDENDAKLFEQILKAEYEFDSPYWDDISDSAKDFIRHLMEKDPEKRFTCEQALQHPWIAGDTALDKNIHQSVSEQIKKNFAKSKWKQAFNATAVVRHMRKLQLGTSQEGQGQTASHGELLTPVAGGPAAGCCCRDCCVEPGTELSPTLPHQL
# Text: as §1
# MSK1 (h) = MSK1 (h) (Homo sapiens, UniProt O75582); assay: biochemical; conditions: MSK1(h); 100 μM
# Sequence of MSK1 (h) (O75582 whole entry): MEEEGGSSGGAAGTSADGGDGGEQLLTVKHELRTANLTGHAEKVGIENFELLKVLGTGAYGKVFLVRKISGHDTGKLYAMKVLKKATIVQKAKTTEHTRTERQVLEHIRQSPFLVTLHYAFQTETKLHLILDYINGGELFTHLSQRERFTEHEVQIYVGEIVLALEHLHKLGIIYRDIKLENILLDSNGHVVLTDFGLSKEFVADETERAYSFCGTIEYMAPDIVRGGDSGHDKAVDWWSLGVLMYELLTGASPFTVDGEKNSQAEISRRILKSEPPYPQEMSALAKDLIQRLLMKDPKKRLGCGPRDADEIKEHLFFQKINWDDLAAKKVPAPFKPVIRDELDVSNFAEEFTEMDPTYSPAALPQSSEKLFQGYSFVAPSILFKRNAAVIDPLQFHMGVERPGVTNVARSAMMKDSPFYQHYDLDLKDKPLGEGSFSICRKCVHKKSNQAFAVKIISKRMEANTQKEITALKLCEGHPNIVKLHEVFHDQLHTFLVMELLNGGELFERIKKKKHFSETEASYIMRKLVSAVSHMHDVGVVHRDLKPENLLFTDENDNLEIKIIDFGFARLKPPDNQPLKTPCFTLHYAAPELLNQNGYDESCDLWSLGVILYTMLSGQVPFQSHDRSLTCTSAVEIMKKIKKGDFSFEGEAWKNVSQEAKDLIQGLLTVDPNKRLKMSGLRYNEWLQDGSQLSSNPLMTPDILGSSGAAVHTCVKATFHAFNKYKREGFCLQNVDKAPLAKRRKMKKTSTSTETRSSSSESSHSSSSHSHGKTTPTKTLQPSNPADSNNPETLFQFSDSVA
# Text: as §1
# FGFR2 (h) = FGFR2 (h) (Homo sapiens, UniProt P21802); assay: biochemical; conditions: FGFR2(h); 100 μM
# Text: as §1
# Fes(h) = Fes(h) (Homo sapiens, UniProt P07332); assay: biochemical; conditions: 100 μM
# Sequence of Fes(h) (P07332 whole entry): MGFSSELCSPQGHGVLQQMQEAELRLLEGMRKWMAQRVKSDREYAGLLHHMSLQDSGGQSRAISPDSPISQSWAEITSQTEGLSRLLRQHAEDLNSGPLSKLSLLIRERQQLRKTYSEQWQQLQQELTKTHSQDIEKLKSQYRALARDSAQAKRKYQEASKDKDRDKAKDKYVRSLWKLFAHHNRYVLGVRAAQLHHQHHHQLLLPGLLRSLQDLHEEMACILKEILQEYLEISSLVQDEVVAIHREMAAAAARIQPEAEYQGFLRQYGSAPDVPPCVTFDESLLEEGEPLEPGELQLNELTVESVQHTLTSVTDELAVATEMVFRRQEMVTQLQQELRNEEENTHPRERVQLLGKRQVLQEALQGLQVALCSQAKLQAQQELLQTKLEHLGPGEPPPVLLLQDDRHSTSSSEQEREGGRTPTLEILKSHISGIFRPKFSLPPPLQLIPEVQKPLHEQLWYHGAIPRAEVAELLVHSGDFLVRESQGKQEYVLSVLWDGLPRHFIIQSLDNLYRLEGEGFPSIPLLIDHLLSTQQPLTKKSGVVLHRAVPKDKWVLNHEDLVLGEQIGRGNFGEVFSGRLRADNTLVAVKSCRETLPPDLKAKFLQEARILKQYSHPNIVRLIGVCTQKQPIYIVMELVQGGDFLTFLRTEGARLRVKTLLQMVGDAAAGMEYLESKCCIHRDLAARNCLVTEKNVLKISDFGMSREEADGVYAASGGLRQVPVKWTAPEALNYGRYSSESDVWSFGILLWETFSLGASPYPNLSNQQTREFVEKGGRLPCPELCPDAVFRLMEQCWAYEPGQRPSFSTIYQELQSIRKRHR
# Text: as §1
# 266 human kinases [1] = biological target: 266 human kinases (Homo sapiens, UniProt P08581, Y1230H); assay: biochemical; assay type: biochemical; conditions: Met(Y1248H)(h); 100 μM
# Text: as §1
# 266 human kinases [2] = biological target: 266 human kinases (Homo sapiens, UniProt Q05397); assay: biochemical; assay type: biochemical; conditions: FAK(h); 100 μM
# Sequence of 266 human kinases (Homo sapiens, UniProt Q05397) (Q05397 whole entry): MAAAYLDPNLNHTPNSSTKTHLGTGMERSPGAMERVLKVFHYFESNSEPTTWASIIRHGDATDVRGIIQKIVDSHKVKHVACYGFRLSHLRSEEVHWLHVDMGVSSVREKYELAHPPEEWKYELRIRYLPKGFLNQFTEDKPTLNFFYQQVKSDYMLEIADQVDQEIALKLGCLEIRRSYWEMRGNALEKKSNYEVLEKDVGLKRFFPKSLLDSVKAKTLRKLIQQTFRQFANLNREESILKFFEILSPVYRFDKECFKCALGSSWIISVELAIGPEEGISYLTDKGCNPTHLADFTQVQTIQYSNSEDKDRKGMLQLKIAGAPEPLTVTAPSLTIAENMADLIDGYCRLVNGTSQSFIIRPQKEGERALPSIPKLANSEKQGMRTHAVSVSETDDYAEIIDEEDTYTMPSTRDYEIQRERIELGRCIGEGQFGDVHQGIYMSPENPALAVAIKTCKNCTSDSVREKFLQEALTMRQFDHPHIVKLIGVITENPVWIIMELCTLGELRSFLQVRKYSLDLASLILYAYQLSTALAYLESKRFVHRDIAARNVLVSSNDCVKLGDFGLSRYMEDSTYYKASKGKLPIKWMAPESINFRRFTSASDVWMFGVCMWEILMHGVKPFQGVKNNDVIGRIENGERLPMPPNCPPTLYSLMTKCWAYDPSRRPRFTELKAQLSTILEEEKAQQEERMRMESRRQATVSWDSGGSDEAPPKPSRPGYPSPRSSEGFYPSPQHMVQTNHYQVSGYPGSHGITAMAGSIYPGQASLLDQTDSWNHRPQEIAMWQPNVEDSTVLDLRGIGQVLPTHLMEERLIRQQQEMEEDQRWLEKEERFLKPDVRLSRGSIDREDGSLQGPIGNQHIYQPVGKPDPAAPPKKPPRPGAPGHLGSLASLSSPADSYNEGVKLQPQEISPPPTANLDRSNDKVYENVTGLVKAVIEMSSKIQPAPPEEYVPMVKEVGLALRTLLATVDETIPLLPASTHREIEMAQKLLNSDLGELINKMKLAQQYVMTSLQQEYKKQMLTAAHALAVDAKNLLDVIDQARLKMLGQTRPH
# Text: as §1
# 266 human kinases [3] = biological target: 266 human kinases (Homo sapiens, UniProt P10721, D816V); assay: biochemical; assay type: biochemical; conditions: cKit(D816V)(h); 100 μM
# Text: as §1
# 266 human kinases [4] = biological target: T3, 266 human kinases (Homo sapiens, UniProt Q15831); assay: biochemical; assay type: biochemical; conditions: LKB1(h); 100 μM
# T3 sequence (Q15831 1-433): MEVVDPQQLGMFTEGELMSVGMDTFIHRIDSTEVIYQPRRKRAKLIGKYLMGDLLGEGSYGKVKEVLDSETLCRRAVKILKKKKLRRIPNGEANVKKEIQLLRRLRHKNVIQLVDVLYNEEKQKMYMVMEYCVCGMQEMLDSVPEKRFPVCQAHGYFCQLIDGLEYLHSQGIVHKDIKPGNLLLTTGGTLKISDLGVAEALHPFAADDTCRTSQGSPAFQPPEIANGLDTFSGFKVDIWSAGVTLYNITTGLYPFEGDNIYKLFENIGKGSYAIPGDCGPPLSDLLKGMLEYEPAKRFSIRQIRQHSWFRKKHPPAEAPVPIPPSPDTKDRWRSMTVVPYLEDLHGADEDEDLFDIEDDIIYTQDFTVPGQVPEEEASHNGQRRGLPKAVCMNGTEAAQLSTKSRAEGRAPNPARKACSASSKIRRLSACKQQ
# Text: as §1
# MAPKAP-K2 (h) = MAPKAP-K2 (h) (Homo sapiens, UniProt P49137); assay: Millipore radiometric kinase assay (IC50 Profiler Express / kinase profiling); assay type: biochemical; conditions: MAPKAP-K2(h); 100 μM
# Text: as §1
# TrkB (h) = TrkB (h) (Homo sapiens, UniProt Q16620); assay: as above; assay type: biochemical; conditions: TrkB(h); 100 μM
# Text: as §1
# MAPKAP-K3 (h) = MAPKAP-K3 (h) (Homo sapiens, UniProt Q16644); assay: as above; assay type: biochemical; conditions: MAPKAP-K3(h); 100 μM
# Text: as §1
Sequence,% activity (DRAK1 (h)) [%],% activity (EGFR (L861Q) (h)) [%],% activity (LOK (h)) [%],% activity (DMPK (h)) [%],% activity (CaMK1δ (h)) [%],% activity (Pim-1 (h)) [%],% activity (CaMKI (h)) [%],% activity (MSK1 (h)) [%],% activity (FGFR2 (h)) [%],% activity (Fes(h)) [%],% activity (266 human kinases [1]) [%],% activity (266 human kinases [2]) [%],% activity (266 human kinases [3]) [%],% activity (266 human kinases [4]) [%],% activity (MAPKAP-K2 (h)) [%],% activity (TrkB (h)) [%],% activity (MAPKAP-K3 (h)) [%]
HRRIKAWLKKIKALARQLGVAA (mammal) [MMI-0500],8,15,7,12,0,0,−1,8,12,23,126,94,30,51,9,12,9
YARAAARQARAKALNRQLGVA (mammal) [MMI-0200],34,74,67,66,47,18,21,50,73,74,153,110,118,99,35,7,39
